Values of other authors, collected in publication PMC2723763.

Molecular target: ZPI (Homo sapiens) (UniProt Q9UK55)
UniProt Q9UK55, sequence (Q9UK55 22-444): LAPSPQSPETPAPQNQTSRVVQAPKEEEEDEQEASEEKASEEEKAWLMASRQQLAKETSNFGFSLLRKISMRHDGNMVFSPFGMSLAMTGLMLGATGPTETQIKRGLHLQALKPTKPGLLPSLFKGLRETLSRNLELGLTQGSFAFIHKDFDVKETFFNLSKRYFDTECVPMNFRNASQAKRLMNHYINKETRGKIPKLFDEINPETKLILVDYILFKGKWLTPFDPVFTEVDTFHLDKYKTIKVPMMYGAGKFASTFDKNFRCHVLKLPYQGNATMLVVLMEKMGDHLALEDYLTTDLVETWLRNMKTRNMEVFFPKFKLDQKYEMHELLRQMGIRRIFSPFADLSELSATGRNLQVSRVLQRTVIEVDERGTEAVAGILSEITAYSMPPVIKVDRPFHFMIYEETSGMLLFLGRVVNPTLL

Kd: 7 nM
Substance: protein Z (from UniProt P22891)
